# In patent US20230192857A1:
# How the values were obtained:
# [1] = biological target: JAK1-Y1034 phosphopeptide with an alanine substitution at the +3 position (UniProt P23458); test: ITC
# [2] = biological target: JAK1 kinase domain (JH1) (Homo sapiens) (UniProt P23458); test: cell-based or functional assay
# [3] = biological target: phosphopeptide corresponding to Tyr1034 within the JAK1 kinase domain activation loop (UniProt P23458); test: ITC
substance,measurement,setting,value
"human CIS lacking both the N-terminal region and the PEST motif (ΔNT/ΔPEST), trimeric complex with elongins B and C (from UniProt Q9NSE2 67-258; Q15370 1-118; Q15369 17-112)",fold reduction of binding against the wild-type JAK1-Y1034 phosphopeptide,[1],4 fold
hCIS-SH2-BC complex (recombinant trimeric complex of human GST-CIS-SH2 construct with Elongins B and C) (from UniProt Q9NSE2 66-258; Q15370 1-118; Q15369 17-112),efficiency of JAK1 JH1 kinase inhibition relative to SOCS1,[2],100 fold lower
same,"fold selectivity of kinase inhibition, JAK1 against JAK2, JAK3 or TYK2 (JH1 domains)",[2],> 20 fold
"human CIS lacking the N-terminal 34 residues (ΔN34), trimeric complex with elongins B and C (from UniProt Q9NSE2 35-258; Q15370 1-118; Q15369 17-112)",Kd,[3],2.2 to 10 µM
